Sequences and labels used below:
T1: amphyphisin SH3 (AMPH_HUMAN), P49418
T1 chain: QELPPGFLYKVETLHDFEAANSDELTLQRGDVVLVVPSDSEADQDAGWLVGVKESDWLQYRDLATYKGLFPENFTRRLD

The first test concerns the target T1, amphyphisin SH3 (AMPH_HUMAN), P49418. The test is described as follows: SPOT array.
LTSGPARPWKSVAL [Q01113 359-372] yielded a normalised SPOT signal, Boehringer light units (BLU); mean over the file's lines of this peptide of 142.
Same read-out and setting: the figure for LSSPLRRPWDQAQH [Q9P2W0 105-118] is 100; for LTLKPIRPRKYPNR [Q06889 251-264] it is 482; for LTVTLQRPTKELHG [Q9Y2K7 133-146] it is 94.9.
The molecule LRRHPSRPMRQSRR [Q9NYU0 896-909] yielded a normalised SPOT signal, Boehringer light units (BLU); mean over the file's lines of this peptide of 3450.
Turning to LTSGLRRPFGVAVM [Q14185 317-330], the normalised SPOT signal, Boehringer light units (BLU); mean over the file's lines of this peptide came out at 35.6.
Still for that read-out and setting: under LVLEFLRPDRQGVT [Q14997 962-975] stands 732; under LVIRLRRPPLRYPR [Q9HAJ1 68-81], 387; under APRRPRRPRRPGPS [Q96QG0 341-354], 2420.
The molecule APRAPRRPRSPPSS [P27815 35-48] returned a normalised SPOT signal, Boehringer light units (BLU); mean over the file's lines of this peptide of 92.3.
Molecule LSFHPKRPWILTSL [P53621 15-28] had a normalised SPOT signal, Boehringer light units (BLU); mean over the file's lines of this peptide of 23.4.
Same read-out and setting: the figure for LSQPPRRPWGNLTA [P22105 891-904] is 60.8; for LTLLFKRPFGTSDP [P09172 129-142] it is 41.
Molecule LTSFLRRPFQSPTS [Q04637 602-615] showed a normalised SPOT signal, Boehringer light units (BLU); mean over the file's lines of this peptide of 70.3.
The molecule LRRLLKRPELEEIF [Q96FL6 71-84] gave a normalised SPOT signal, Boehringer light units (BLU); mean over the file's lines of this peptide of 35.9.
The same measure, in the same setting: under LTPVPSKPPVTPAT [Q03112 565-579] stands 55.4.
For LSADPERPGRFRLE [Q9H0F6 46-59], the normalised SPOT signal, Boehringer light units (BLU); mean over the file's lines of this peptide was found to be 37.1.
The same measure, in the same setting: under LTVAIRRPTDDSNQ [Q9Y2E4 454-467] stands 29.3; under LTLNIRRPSPFDAG [Q14324 1104-1117], 8.1; under LRQPLRRPFRPNGL [Q16753 167-180], 1690.
The same measure, in the same setting: under LTKVFFRPGKFAEF [Q9UM54 753-766] stands 132; under LTWLPPKPPTAFDG [Q16827 346-360], 24.
Still for that read-out and setting: under LSDFPKKPPQPELG [Q96QH2 325-339] stands 64.9; under LSPRPEKPPEEPGQ [O14687 279-293], 46.1; under LTIELRRPENEFWV [Q9NVH6 359-372], 60.
LVIRLPRPPKVLRL [Q9HC66 56-69] displayed a normalised SPOT signal, Boehringer light units (BLU); mean over the file's lines of this peptide of 1960.
For LRWGFSRPRKDKGL [Q9P2P9 1564-1577], the normalised SPOT signal, Boehringer light units (BLU); mean over the file's lines of this peptide was 259.
LSLLLKRPWDPAVG [Q9NWE5 158-171] gave a normalised SPOT signal, Boehringer light units (BLU); mean over the file's lines of this peptide of 30.
With LSERPPRPPPPPPP [Q96Q04 431-445], the normalised SPOT signal, Boehringer light units (BLU); mean over the file's lines of this peptide amounted to 341.
On the same count and under the same terms, under LSGGLKRPSTRTPN [Q9BQL3 78-91] stands 22.4; under LSNSLTRPQKLSPV [O60673 804-817], 120; under LSKWLKRPGALEKQ [Q96S42 159-172], 21.1.
Still for that read-out and setting: under APRYLGRPKKEKTI [Q9C0B5 292-305] stands 7.1; under LTHVLSRPRRGSSG [Q9H6B9 44-57], 2960; under LVIRPPRPPKVLGL [P39189 565-579], 12400.
For the molecule LVIRPPRPPKVLRL [Q9H3C0 95-109], the normalised SPOT signal, Boehringer light units (BLU); mean over the file's lines of this peptide is 14800.
Still for that read-out and setting: under LVIRLRRPPLRSPR [Q9H8Y6 68-81] stands 90.6; under LTVAIRRPPDLGGP [Q96NX2 418-431], 23.5.

A further test concerns the target endophilin SH3 (SH3G2_HUMAN), Q99962. The test is described as follows: SPOT array.
LTSGPARPWKSVAL [Q01113 359-372] registered a normalised SPOT signal, Boehringer light units (BLU); mean over the file's lines of this peptide of 428.
LSSPLRRPWDQAQH [Q9P2W0 105-118] showed a normalised SPOT signal, Boehringer light units (BLU); mean over the file's lines of this peptide of 280.
In turn, LTLKPIRPRKYPNR [Q06889 251-264] had a normalised SPOT signal, Boehringer light units (BLU); mean over the file's lines of this peptide of 102.
As to LTVTLQRPTKELHG [Q9Y2K7 133-146], the normalised SPOT signal, Boehringer light units (BLU); mean over the file's lines of this peptide worked out at 192.
Same read-out and setting: under LRRHPSRPMRQSRR [Q9NYU0 896-909] stands 412; under LTSGLRRPFGVAVM [Q14185 317-330], 43.
In the case of LVLEFLRPDRQGVT [Q14997 962-975], the normalised SPOT signal, Boehringer light units (BLU); mean over the file's lines of this peptide is 49.7.
On the same count and under the same terms, under LVIRLRRPPLRYPR [Q9HAJ1 68-81] stands 6210; under APRRPRRPRRPGPS [Q96QG0 341-354], 1500.
Still for that read-out and setting: under APRAPRRPRSPPSS [P27815 35-48] stands 257; under LSFHPKRPWILTSL [P53621 15-28], 121; under LSQPPRRPWGNLTA [P22105 891-904], 154.
LTLLFKRPFGTSDP [P09172 129-142] returned a normalised SPOT signal, Boehringer light units (BLU); mean over the file's lines of this peptide of 44.1.
Regarding LTSFLRRPFQSPTS [Q04637 602-615], the normalised SPOT signal, Boehringer light units (BLU); mean over the file's lines of this peptide turned out to be 1560.
Still for that read-out and setting: under LRRLLKRPELEEIF [Q96FL6 71-84] stands 59.1.
Same read-out and setting: the figure for LTPVPSKPPVTPAT [Q03112 565-579] is 37.
LSADPERPGRFRLE [Q9H0F6 46-59] came in with a normalised SPOT signal, Boehringer light units (BLU); mean over the file's lines of this peptide of 121.
LTVAIRRPTDDSNQ [Q9Y2E4 454-467] returned a normalised SPOT signal, Boehringer light units (BLU); mean over the file's lines of this peptide of 158.
Still for that read-out and setting: the figure for LTLNIRRPSPFDAG [Q14324 1104-1117] is 159; for LRQPLRRPFRPNGL [Q16753 167-180] it is 489.
Still for that read-out and setting: under LTKVFFRPGKFAEF [Q9UM54 753-766] stands 199; under LTWLPPKPPTAFDG [Q16827 346-360], 71.7; under LSDFPKKPPQPELG [Q96QH2 325-339], 95.7.
On to LSPRPEKPPEEPGQ [O14687 279-293], for which the normalised SPOT signal, Boehringer light units (BLU); mean over the file's lines of this peptide amounted to 39.8.
LTIELRRPENEFWV [Q9NVH6 359-372] yielded a normalised SPOT signal, Boehringer light units (BLU); mean over the file's lines of this peptide of 52.4.
The molecule LVIRLPRPPKVLRL [Q9HC66 56-69] came in with a normalised SPOT signal, Boehringer light units (BLU); mean over the file's lines of this peptide of 2110.
Molecule LRWGFSRPRKDKGL [Q9P2P9 1564-1577] gave a normalised SPOT signal, Boehringer light units (BLU); mean over the file's lines of this peptide of 102.
In the case of LSLLLKRPWDPAVG [Q9NWE5 158-171], the normalised SPOT signal, Boehringer light units (BLU); mean over the file's lines of this peptide was 38.6.
The same measure, in the same setting: under LSERPPRPPPPPPP [Q96Q04 431-445] stands 944; under LSGGLKRPSTRTPN [Q9BQL3 78-91], 27.
Still for that read-out and setting: the figure for LSNSLTRPQKLSPV [O60673 804-817] is 106.
On the same count and under the same terms, the figure for LSKWLKRPGALEKQ [Q96S42 159-172] is 67.5; for APRYLGRPKKEKTI [Q9C0B5 292-305] it is 69.5.
In turn, LTHVLSRPRRGSSG [Q9H6B9 44-57] registered a normalised SPOT signal, Boehringer light units (BLU); mean over the file's lines of this peptide of 170.
The same measure, in the same setting: the figure for LVIRPPRPPKVLGL [P39189 565-579] is 20800; for LVIRPPRPPKVLRL [Q9H3C0 95-109] it is 19500; for LVIRLRRPPLRSPR [Q9H8Y6 68-81] it is 12900.
With LTVAIRRPPDLGGP [Q96NX2 418-431], the normalised SPOT signal, Boehringer light units (BLU); mean over the file's lines of this peptide came out at 17.9.

For the origin of these results see PMC314469, “Protein Interaction Networks by Proteome Peptide Scanning” (PLoS Biology, 2004).
